This note sets out measurements from paper PMC4089491, “BuD, a helix–loop–helix DNA-binding domain for genome modification”.

The test system of one data set is AvrBs3 TALE. Put plainly: SPR. To be noted: FA and ITC: 25 mM HEPES pH 8, 150 mM NaCl, 0.2 mM TCEP, 298 K, SPR: HBS-EP+ (10 mM HEPES pH 7.4, 150 mM NaCl, 3 mM EDTA, 0.05% P20).
For data set [1], the target named is Variant2 ND (Burkholderia rhizoxinica) (UniProt E5AV36). Put plainly: ITC. To be noted: FA and ITC: 25 mM HEPES pH 8, 150 mM NaCl, 0.2 mM TCEP, 298 K, SPR: HBS-EP+ (10 mM HEPES pH 7.4, 150 mM NaCl, 3 mM EDTA, 0.05% P20).
In data set [2] the target is BurrH Variant2 (CAPNS1) (Burkholderia rhizoxinica) (UniProt E5AV36). Put plainly: ITC. Particulars: FA and ITC: 25 mM HEPES pH 8, 150 mM NaCl, 0.2 mM TCEP, 298 K, SPR: HBS-EP+ (10 mM HEPES pH 7.4, 150 mM NaCl, 3 mM EDTA, 0.05% P20).
Data set [3] has as its target T1, BurrH (Burkholderia rhizoxinica, UniProt E5AV36 1-771).
T1 sequence: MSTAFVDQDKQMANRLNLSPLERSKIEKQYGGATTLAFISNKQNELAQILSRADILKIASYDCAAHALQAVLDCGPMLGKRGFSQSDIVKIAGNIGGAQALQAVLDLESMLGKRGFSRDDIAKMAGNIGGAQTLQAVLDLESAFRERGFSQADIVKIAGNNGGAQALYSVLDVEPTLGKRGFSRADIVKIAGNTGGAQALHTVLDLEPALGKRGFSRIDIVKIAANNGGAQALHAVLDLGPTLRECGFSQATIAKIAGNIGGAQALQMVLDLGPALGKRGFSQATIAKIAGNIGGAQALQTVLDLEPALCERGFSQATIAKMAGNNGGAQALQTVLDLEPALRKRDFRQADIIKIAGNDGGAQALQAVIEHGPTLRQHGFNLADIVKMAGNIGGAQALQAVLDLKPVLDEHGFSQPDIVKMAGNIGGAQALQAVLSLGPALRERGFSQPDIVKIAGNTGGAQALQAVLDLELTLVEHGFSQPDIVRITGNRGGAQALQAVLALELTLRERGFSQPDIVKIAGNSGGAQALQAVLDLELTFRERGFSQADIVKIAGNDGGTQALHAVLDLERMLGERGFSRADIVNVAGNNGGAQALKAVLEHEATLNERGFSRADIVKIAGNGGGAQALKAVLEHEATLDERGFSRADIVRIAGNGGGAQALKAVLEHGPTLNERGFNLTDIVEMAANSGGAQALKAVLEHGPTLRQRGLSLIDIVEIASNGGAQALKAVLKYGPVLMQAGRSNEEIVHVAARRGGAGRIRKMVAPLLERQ
Put plainly: SPR. To be noted: FA and ITC: 25 mM HEPES pH 8, 150 mM NaCl, 0.2 mM TCEP, 298 K, SPR: HBS-EP+ (10 mM HEPES pH 7.4, 150 mM NaCl, 3 mM EDTA, 0.05% P20).

The target of data set [4] is Variant4 ND (Burkholderia rhizoxinica) (UniProt E5AV36). The data set is described as follows: ITC. To be noted: FA and ITC: 25 mM HEPES pH 8, 150 mM NaCl, 0.2 mM TCEP, 298 K, SPR: HBS-EP+ (10 mM HEPES pH 7.4, 150 mM NaCl, 3 mM EDTA, 0.05% P20).
The target in data set [5] is BurrH Variant4 (RAG1) (Burkholderia rhizoxinica) (UniProt E5AV36). The data set is described as follows: ITC. To be noted: FA and ITC: 25 mM HEPES pH 8, 150 mM NaCl, 0.2 mM TCEP, 298 K, SPR: HBS-EP+ (10 mM HEPES pH 7.4, 150 mM NaCl, 3 mM EDTA, 0.05% P20).
In data set [6] the target is Variant1 ND (Burkholderia rhizoxinica) (UniProt E5AV36). Put plainly: ITC. Particulars: FA and ITC: 25 mM HEPES pH 8, 150 mM NaCl, 0.2 mM TCEP, 298 K, SPR: HBS-EP+ (10 mM HEPES pH 7.4, 150 mM NaCl, 3 mM EDTA, 0.05% P20).
Data set [7] concerns the target BurrH Variant1 (CAPNS1) (Burkholderia rhizoxinica) (UniProt E5AV36). Put plainly: ITC. Particulars: FA and ITC: 25 mM HEPES pH 8, 150 mM NaCl, 0.2 mM TCEP, 298 K, SPR: HBS-EP+ (10 mM HEPES pH 7.4, 150 mM NaCl, 3 mM EDTA, 0.05% P20).
The target in data set [8] is BurrH Variant3 (RAG1) (Burkholderia rhizoxinica) (UniProt E5AV36). Put plainly: ITC. To be noted: FA and ITC: 25 mM HEPES pH 8, 150 mM NaCl, 0.2 mM TCEP, 298 K, SPR: HBS-EP+ (10 mM HEPES pH 7.4, 150 mM NaCl, 3 mM EDTA, 0.05% P20).
Data set [9] has as its target Variant3 ND (Burkholderia rhizoxinica) (UniProt E5AV36). The data set is described as follows: ITC. Particulars: FA and ITC: 25 mM HEPES pH 8, 150 mM NaCl, 0.2 mM TCEP, 298 K, SPR: HBS-EP+ (10 mM HEPES pH 7.4, 150 mM NaCl, 3 mM EDTA, 0.05% P20).
The target of data set [10] is T1, BurrH. Put plainly: fluorescence anisotropy; FA and ITC: 25 mM HEPES pH 8, 150 mM NaCl, 0.2 mM TCEP, 298 K; SPR: HBS-EP+ (10 mM HEPES pH 7.4, 150 mM NaCl, 3 mM EDTA, 0.05% P20), 298 K. To be noted: protein: recombinant; label: 5' 6-FAM.
In data set [11] the target is T1, BurrH. Put plainly: ITC; FA and ITC: 25 mM HEPES pH 8, 150 mM NaCl, 0.2 mM TCEP, 298 K; SPR: HBS-EP+ (10 mM HEPES pH 7.4, 150 mM NaCl, 3 mM EDTA, 0.05% P20), 298 K. Particulars: protein: recombinant.

Turning to AvrBs3 target, SPR duplex, the Kd with AvrBs3 TALE was found to be 0.22 nM. Consider “TTTTGTCCGGGAACCCAGAGCTA (double strand) [V2 target]”, for which the results for the Kd in data set [1] and in [2] were 215 nM and 149 nM, respectively.

Consider BurrH target, SPR duplex, for which the Kd in the data set with BurrH [3] was determined as 0.36 nM; in the data set on AvrBs3 TALE it was 1000 nM. “TTGTATATATTTAAGCACTTATA (double strand) [V4 target]”: the results for the Kd in [4] and in [5] were 14 nM and 12 nM, respectively.

As for “TTGGCTCTGTGGGCTCGGGTCTA (double strand) [V1 target]”, the Kd in data set [6] and in data set [7] was 29 nM throughout. Turning to “TTCAGTGTTTATGGTTACTTATA (double strand) [V3 target]”, the Kd in [8] amounted to 30 nM; in [9], 26 nM.

B1: FA duplex 6 (C4 C12 T13) (dsDNA)
DNA 1: TTAAGCGAAGCAACTACGTTATA
DNA 2: TATAACGTAGTTGCTTCGCTTAA
As for B1, the Kd in the data set with BurrH [10] stood at 43 ± 10 nM.

B2: FA duplex 4 (T4 T12 A13) (dsDNA)
DNA 1: TTAAGTGAAGCAATAACGTTATA
DNA 2: TATAACGTTATTGCTTCACTTAA
B2: the dissociation constant (Kd) with BurrH [10] turned out to be 61 ± 8 nM.

B3: FA duplex 15 (G4 G12 C13) (dsDNA)
DNA 1: TTAAGGGAAGCAAGCACGTTATA
DNA 2: TATAACGTGCTTGCTTCCCTTAA
Turning to B3, the Kd with BurrH [10] is 59 ± 6 nM.

B4: BurrH target C0 (dsDNA)
DNA 1: TCAAGAGAAGCAAATACGTTATA
DNA 2: TATAACGTATTTGCTTCTCTTGA
Consider B4, for which the Kd with BurrH [11] worked out at 15 ± 3.2 nM.

B5: BurrH RNA target/DNA hybrid (DNA:RNA)
RNA: UUAAGAGAAGCAAAUACGUUAUA
DNA: TATAACGTATTTGCAACTCTTAA
For B5, the Kd with BurrH [11] (blunt) was determined as 1890 ± 438 nM.

B6: FA duplex 9 (A4 A12 G13) (dsDNA)
DNA 1: TTAAGAGAAGCAAAGACGTTATA
DNA 2: TATAACGTCTTTGCTTCTCTTAA
On to B6, for which the Kd with BurrH [10] came to 35 ± 6 nM.

B7: FA duplex 5 (A4 A12 T13) (dsDNA)
DNA 1: TTAAGAGAAGCAAATACGTTATA
DNA 2: TATAACGTATTTGCTTCTCTTAA
As to B7, in the data set with BurrH [10], the Kd was found to be 32 ± 7 nM.

B8: FA duplex 1 (A4 A12 A13) (dsDNA)
DNA 1: TTAAGAGAAGCAAAAACGTTATA
DNA 2: TATAACGTTTTTGCTTCTCTTAA
As for B8, the Kd with BurrH [10] worked out at 40 ± 3 nM.

B9: BurrH target A0 (dsDNA)
DNA 1: TAAAGAGAAGCAAATACGTTATA
DNA 2: TATAACGTATTTGCTTCTCTTTA
B9: in the data set with BurrH [11], the Kd is 15 ± 2.8 nM.

B10: FA duplex 7 (G4 G12 T13) (dsDNA)
DNA 1: TTAAGGGAAGCAAGTACGTTATA
DNA 2: TATAACGTACTTGCTTCCCTTAA
Turning to B10, in the data set with BurrH [10], the Kd amounted to 42 ± 7 nM.

B11: FA duplex 2 (C4 C12 A13) (dsDNA)
DNA 1: TTAAGCGAAGCAACAACGTTATA
DNA 2: TATAACGTTGTTGCTTCGCTTAA
As to B11, the Kd with BurrH [10] came to 44 ± 9 nM.

B12: FA duplex 12 (T4 T12 G13) (dsDNA)
DNA 1: TTAAGTGAAGCAATGACGTTATA
DNA 2: TATAACGTCATTGCTTCACTTAA
Turning to B12, in the data set with BurrH [10], the Kd was found to be 63 ± 5 nM.

B13: BurrH DNA target duplex (dsDNA)
DNA 1: TTAAGAGAAGCAAATACGTTATA
DNA 2: TATAACGTATTTGCTTCTCTTAA
Consider B13, for which the Kd in the data set with BurrH [11] worked out at 25 ± 4.3 nM.

B14: FA duplex 11 (G4 G12 G13) (dsDNA)
DNA 1: TTAAGGGAAGCAAGGACGTTATA
DNA 2: TATAACGTCCTTGCTTCCCTTAA
As to B14, the Kd in the data set with BurrH [10] was found to be 90 ± 12 nM.

B15: FA duplex 3 (G4 G12 A13) (dsDNA)
DNA 1: TTAAGGGAAGCAAGAACGTTATA
DNA 2: TATAACGTTCTTGCTTCCCTTAA
B15: the Kd with BurrH [10] is 81 ± 12 nM.

B16: BurrH DNA target/RNA hybrid (DNA:RNA)
DNA: TTAAGAGAAGCAAATACGTTATA
RNA: UAUAACGUAUUUGCAACUCUUAA
In the case of B16, the Kd in the data set with BurrH [11] (blunt) came to 56 ± 6.5 nM.

B17: FA duplex 14 (C4 C12 C13) (dsDNA)
DNA 1: TTAAGCGAAGCAACCACGTTATA
DNA 2: TATAACGTGGTTGCTTCGCTTAA
Consider B17, for which the Kd with BurrH [10] is 47 ± 5 nM.

B18: FA duplex 10 (C4 C12 G13) (dsDNA)
DNA 1: TTAAGCGAAGCAACGACGTTATA
DNA 2: TATAACGTCGTTGCTTCGCTTAA
Regarding B18, in the data set with BurrH [10], the Kd was found to be 49 ± 10 nM.

B19: FA duplex 13 (A4 A12 C13) (dsDNA)
DNA 1: TTAAGAGAAGCAAACACGTTATA
DNA 2: TATAACGTGTTTGCTTCTCTTAA
On to B19, for which the dissociation constant (Kd) with BurrH [10] stood at 39 ± 10 nM.

B20: BurrH target G0 (dsDNA)
DNA 1: TGAAGAGAAGCAAATACGTTATA
DNA 2: TATAACGTATTTGCTTCTCTTCA
Turning to B20, in the data set with BurrH [11], the dissociation constant Kd was 24 ± 6.3 nM.
